{"source": "patent US12564637B2", "about": "“Nucleic acid mazzocchio and methods of making and use thereof” (The University of Hong Kong, priority 2019, dated 2026)", "molecules": {"B1": {"name": "mazzocchio: DNA nanostructure of 16 hexagonal subunits, each composed of 12 single-stranded DNA oligonucleotides (SEQ ID NOs: 1-12) (nucleic acid)", "chain 1": "GATAGGCCGAGATCTGAGGATGCTGGCTCACGCCATTGGCTCGCGACCCCGTCCGCTAGACGTTATGCACAAGGCGTTGTCATTAGATGCTTAGGTGCTCAGGCCGTAATGAGGCCGCTTGGCTGCGTTCCTCCGCCGCTTGGGAACAGCCCCGC", "chain 2": "TCCAGCTCTGCGGACGGGGTCGCGAGCCATTCGAGGGCT", "chain 3": "TCGCCTGTAATACGCCTTGTGCATAACGTCTTGCCAACCC", "chain 4": "TGCCCGTACCCTGGTGCACCTAAGCATCTAATGACTCTGCGGAAGA", "chain 5": "TACCCCACTTTAGCGATAGCGGCCTCATTACGGCCTGTGCTACCCGTACGGA", "chain 6": "ATCAGTACGATTGGCGTGAGCCAGCATCCTCTAGCGGCGGAGGAACGCAGCCTAGGCGGAACTCTTCGG", "chain 7": "TCGCTAAAGTGGGGTACCGAAGAGTTCCGCCT", "chain 8": "GATCTCGGCCTATCGCGGGGCTGTTCCC", "chain 9": "TCGTACTGATGAGCCCTCGA", "chain 10": "GAGCTGGAGGGTTGGC", "chain 11": "TTACAGGCGATCTTCCGCAG", "chain 12": "CCAGGGTACGGGCATCCGTACGGGTAGC", "modifications": "16 hexagonal subunits assembled; Synthetic sequence - strand 1; Synthetic sequence - strand 2; Synthetic sequence - strand 3; Synthetic sequence - strand 4; Synthetic sequence - strand 5; Synthetic sequence - strand 6; Synthetic sequence - strand 7; Synthetic sequence - strand 8; Synthetic sequence - strand 9; Synthetic sequence - strand 10; Synthetic sequence - strand 11; Synthetic sequence - strand 12"}}, "key": {"[1]": {"experiment": "Doxorubicin loading/encapsulation by quenching of doxorubicin fluorescence", "type": "binding", "method": "The DNA mazzocchio (from Example 1) and DNA tetrahedron nanostructures were made through an annealing process. The multiple single-stranded DNAs were mixed in equal ratio and placed in a thermal cycler to heat up (95° C. for 5 minutes) followed by slow cooling (overnight down to 20° C.).\n10 μM of doxorubicin was incubated with various concentrations of the DNA mazzocchio and DNA tetrahedron nanostructures (as shown on the X-axis of FIG. 2) for 1 hour at room temperature. Then, 13 μl of mixture was placed in a 384-well microtiter plate and inserted in the plate reader. The fluorescence was measured using a plate reader (Varioskan Flash by Thermo Fisher Scientific) at the following parameters: Excitation 488 nm/Emission 595 nm; bandwidth 12 nm; measurement time: 500 ms. Error bars were obtained as standard error from triplicate experiments.\nSince the intercalation of doxorubicin inhibited its fluorescence, the loading efficiency could be determined by the half maximal inhibitory concentration (IC50)."}, "[2]": {"experiment": "Diameter of the nanostructure by transmission electron microscopy (TEM)", "type": "physicochemical", "details": "images analyzed by ImageJ", "method": "TEM was used to characterize the final DNA mazzocchio nanostructure. 5 μl of DNA mazzocchio samples were first adsorbed onto glow-discharged 400 mesh copper grids (Ted Pella, Inc.) for 1 minute. This was followed by staining with 2% uranyl acetate for 1 minute. The stained samples were washed twice by distilled water to remove excess uranyl acetate. Stained DNA mazzocchio samples on the grid were visualized using a Philips CM 100 Transmission Electron Microscope with 100 kV operating voltage. Electron photomicrographs of DNA mazzocchio were captured with magnification from 73,000×-105,000× on different positions of the grid. To experimentally determine the diameter of the DNA mazzocchio, images were analyzed by the ImageJ software."}}, "data": [{"molecule": "B1", "values": [{"measurement": "IC50", "setting": "[1]; 10 μM doxorubicin, 1 hour at room temperature, Ex 488 nm/Em 595 nm, triplicate, read-out: half maximal inhibitory concentration (IC50) of doxorubicin fluorescence (loading efficiency)", "value": 480, "unit": "nM"}, {"measurement": "effectiveness in carrying doxorubicin as compared to the tetrahedron", "setting": "[1]; comparison of the IC50 values", "value": "three times more effective"}, {"measurement": "average diameter of the nanostructures", "setting": "[2]", "value": "49.30±10.37", "unit": "nm"}]}]}
